Consider one molecule from publication PMC11311238.

The assay deals with phycobilisome core (CK) of allophycocyanin cylinders from a Synechocystis PCC 6803 mutant lacking the rods (Synechocystis sp. PCC 6803 (endogenous in the rod-less mutant)) (UniProt Q01951).

B1: N-terminal domain (NTD) of the orange carotenoid protein (OCP) binding canthaxanthin (holo-NTD) (domain or fragment)
chain: VPATIARFSQLNAEDQLALIWFAYLEMGKTLTIAAPGAASMQLAENALKEIQAMGPLQQTQAMCDLANRADTPLCRTYASWSPNIKLGFWYRLGELMEQGFVAPIPAGYQLSANANAVLATIQGLESGQQITVLRNAVVDMGFTA
Take B1: the fraction of the decay of excited CK bilins that is quenched (112 ps component) in CK-NTD, transient absorption with excitation at 694 nm amounted to 76%.
